Assay results from patent US20230312686A1 (Bristol-Myers Squibb, published 2023).

Experiments:
[1] = molecular target: T1, Human glypican-3 on cells (Huh7, Hep3B, H446, Hep3B xenograft tissue) (human, UniProt P51654 25-554); assay: flow cytometry on Hep3B cells, His Tag PE antibody
T1 construct: Endogenous GPC3 of human tumour cell lines; also called huGPC3 on cells; GPC3 receptor
Experimental: GPC3 AdxDC were evaluated by flow cytometry for binding to human Hep3B hepatocellular carcinoma cells grown in MEM with 10% FBS, and H446 small cell lung carcinoma cells grown in RPMI with 10% FBS. Cells were harvested using Cellstripper, a non-enzymatic cell dissociation solution from Mediatch (Corning: Manassas, VA 20109), Cat. #25-056-CL. Tumor cells (25,000/reaction) were suspended in FACS buffer (PBS+5% FBS+0.01% NaN₃) and mixed with a serial dilution of AdxDC for 1 hour on ice. Cells were washed three times with FACS buffer, and bound AdxDC was detected with His Tag PE-conjugated Antibody from R&D System, cat #IC050P, and read on a flow cytometer.

[2] = molecular target: T1, Human glypican-3 on cells (Huh7, Hep3B, …); assay: cell-based or functional assay
[3] = molecular target: T2, Recombinant human glypican-3 (aa 1-559), His-tagged, R&D Systems (human, UniProt P51654 25-559); assay: SPR KD, 37 C, Biacore T100
T2 construct: also called huGPC3; Hu GPC3-His
Experimental: (§1) For off-rate measurements, single 200 nM adnectin/AdxDC concentrations were injected using identical conditions. One 30s injection of 10 mM glycine pH 1.7 was used to remove bound adnectin and regenerate the GPC3 surfaces between assay cycles.
(§2) Rate constants kₐ (kₒₙ) and kd (koff) were derived from reference-subtracted sensorgrams fit to a 1:1 binding model in Biacore T100 Evaluation Software v2.0.4 (GE Healthcare). The affinity constant, KD was calculated from the ratio of rate constants kd/kₐ.

[4] = molecular target: T1, Human glypican-3 on cells (Huh7, Hep3B, …); assay: staining of Hep3B xenograft tissue
[5] = molecular target: T2, Recombinant human glypican-3 (aa …); assay: SPR
[6] = molecular target: T1, Human glypican-3 on cells (Huh7, Hep3B, …); assay: flow cytometry on Huh7 cells, alkylated Adnectin
[7] = molecular target: T3, Recombinant murine glypican-3 (aa 25-557), R&D Systems (murine, UniProt Q8CFZ4 25-557); assay: SPR, 37 C
T3 construct: also called muGPC3; Mu GPC3-His
Experimental: as §1, §2

[8] = molecular target: T2, Recombinant human glypican-3 (aa …); assay: SPR, 37 C
Experimental: as §1, §2

[9] = molecular target: T1, Human glypican-3 on cells (Huh7, Hep3B, …); assay: cell-based or functional assay; remark: listed apart in the source
[10] = molecular target: T1, Human glypican-3 on cells (Huh7, Hep3B, …); assay: flow cytometry on Huh7 cells, unconjugated protein; Huh7 cells; unconjugated protein
Experimental: The binding of DG variants to huGPC3 in DG GPC3 AdxDCs mutants were evaluated by flow cytometry for binding to Huh7 carcinoma cells grown in DMEM media with 10% FBS. Cells were harvested using Versene, an EDTA cell dissociation solution from Lonza, Cat. #17-711E. Tumor cells (1E5 cells/reaction) were suspended in FACS buffer (PBS, 1% BSA, 0.05% Na Azide) and mixed with a serial dilution of AdxDC for one hour on ice. Cells were washed three times with FACS buffer, and bound AdxDC was detected with an in house anti-scaffold monoclonal Ab and PE-conjugated Antibody from (RnD Systems), cat #NL007, and read on a flow cytometer.

[11] = molecular target: T3, Recombinant murine glypican-3 (aa …); assay: SPR, Biacore T100, 37 C, GPC3 immobilised, DAR1 AdxDC
Experimental: as §1, §2

[12] = molecular target: T2, Recombinant human glypican-3 (aa …); assay: as above
Experimental: as §1, §2

[13] = molecular target: T3, Recombinant murine glypican-3 (aa …); assay: SPR, Biacore T100, GPC3-His immobilised, 1:1 fit
Experimental: (§3) The binding affinities of the alkylated GPC3 DG mutant adnectins for human and murine GPC3 were further evaluated by Biacore T100 using HBS-P+ running buffer with direct immobilization of human and mouse GPC3 proteins [Hu (Fc 2,3) and Mu (Fc 4) GPC3-His (R&D Systems)] with a 200-1.56 nM series injected for 180s association, 600s dissociation.

[14] = molecular target: T2, Recombinant human glypican-3 (aa …); assay: SPR, Biacore T100, GPC3-His immobilised, 1:1 fit
Experimental: as §3

[15] = molecular target: T3, Recombinant murine glypican-3 (aa …); assay: SPR, as in the previous Examples
Experimental: as §1, §2
(§4) FITC Labeling: ADX_6077_F02 and non-binding control Adnectin were reduced with DTT or TCEP followed by G25 gel filtration chromatography or dialysis. Excess Fluorescein-5-maleimide reagent (Thermo Scientific) was then added and the mixture incubated at room temperature for approximately 2 hours followed by G25 gel filtration chromatography or extensive dialysis (3-4 buffer changes). The resulting degree of labeling was measured by absorbance following the manufacturer's instructions and/or by mass spectrometry. The binding affinities of FITC-labeled and PEGylated […] for human and murine GPC3 was evaluated as described in the previous Examples, and the results are summarized in Table 13.

[16] = molecular target: T2, Recombinant human glypican-3 (aa …); assay: SPR, as in the previous Examples
Experimental: as §1, §2, §4

T2 sequence (P51654 other isoform, or with tags, fused parts or gaps): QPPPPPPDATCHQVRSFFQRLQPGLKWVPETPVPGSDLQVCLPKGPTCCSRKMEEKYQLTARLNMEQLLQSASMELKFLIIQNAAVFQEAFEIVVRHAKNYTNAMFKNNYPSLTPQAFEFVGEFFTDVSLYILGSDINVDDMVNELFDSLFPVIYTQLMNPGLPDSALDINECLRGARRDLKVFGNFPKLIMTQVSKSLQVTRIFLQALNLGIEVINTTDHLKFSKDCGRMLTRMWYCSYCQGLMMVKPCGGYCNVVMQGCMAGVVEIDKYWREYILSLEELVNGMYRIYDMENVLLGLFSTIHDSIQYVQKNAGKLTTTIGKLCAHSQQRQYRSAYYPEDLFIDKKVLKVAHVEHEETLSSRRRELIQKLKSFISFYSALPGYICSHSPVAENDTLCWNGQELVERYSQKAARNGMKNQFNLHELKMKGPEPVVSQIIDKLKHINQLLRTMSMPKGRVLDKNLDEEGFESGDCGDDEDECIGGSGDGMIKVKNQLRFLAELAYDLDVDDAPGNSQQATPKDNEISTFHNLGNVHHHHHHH
T1 sequence (P51654 25-554 limits assumed): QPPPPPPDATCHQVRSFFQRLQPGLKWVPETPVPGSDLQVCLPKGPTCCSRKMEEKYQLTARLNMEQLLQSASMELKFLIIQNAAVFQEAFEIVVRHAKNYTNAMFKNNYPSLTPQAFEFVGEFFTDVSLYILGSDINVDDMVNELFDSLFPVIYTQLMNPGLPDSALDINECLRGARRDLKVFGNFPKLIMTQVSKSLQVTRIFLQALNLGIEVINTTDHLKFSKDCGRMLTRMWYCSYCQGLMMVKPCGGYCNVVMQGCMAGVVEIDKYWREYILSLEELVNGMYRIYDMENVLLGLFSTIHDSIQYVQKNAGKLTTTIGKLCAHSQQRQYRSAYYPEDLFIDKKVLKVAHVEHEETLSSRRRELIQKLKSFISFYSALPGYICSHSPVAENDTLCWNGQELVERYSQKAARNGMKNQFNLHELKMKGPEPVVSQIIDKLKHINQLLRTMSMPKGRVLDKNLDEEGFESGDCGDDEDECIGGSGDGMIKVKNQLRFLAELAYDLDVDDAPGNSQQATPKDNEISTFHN
T3 sequence (Q8CFZ4 25-557 limits assumed, form in doubt): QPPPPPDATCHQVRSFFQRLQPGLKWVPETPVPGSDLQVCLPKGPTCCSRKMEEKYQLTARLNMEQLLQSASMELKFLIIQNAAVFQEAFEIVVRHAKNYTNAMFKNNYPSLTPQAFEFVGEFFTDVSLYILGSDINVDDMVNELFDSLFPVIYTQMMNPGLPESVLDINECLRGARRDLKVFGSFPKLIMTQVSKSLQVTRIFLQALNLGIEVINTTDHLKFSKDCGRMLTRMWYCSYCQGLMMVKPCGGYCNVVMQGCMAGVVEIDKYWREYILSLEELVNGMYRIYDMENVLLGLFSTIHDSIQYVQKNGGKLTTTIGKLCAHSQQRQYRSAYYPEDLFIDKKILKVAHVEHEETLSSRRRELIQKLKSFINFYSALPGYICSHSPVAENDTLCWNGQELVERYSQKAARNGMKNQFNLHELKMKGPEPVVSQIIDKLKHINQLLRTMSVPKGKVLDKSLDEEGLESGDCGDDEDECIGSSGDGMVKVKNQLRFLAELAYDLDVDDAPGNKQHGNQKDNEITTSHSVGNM

B1: ADX_6093_A01 DAR1 AdxDC (non-binding control) (designed binder)
chain: MGVSDVPRDLEVVAATPTSLLISWDAPAVTVRYYRITYGETGGNSPVQEFTVPGSKSTATISGLKPGVDYTITVYAVTGRGESPASSKPISINYRTPCHHHHHH
modifications: tubulysin analog-linker (formula IV) on the C-terminal cysteine (DAR1)
notes: Control 10Fn3 with RGE in place of RGD; also called RGE AdxDC
In the case of B1, the binding result [1] is reported as “no binding (tested: about 30 nM)”, the “AdxDC cell-killing IC50” value [2] is reported as > 25 nM and the binding result [3] is reported as “no binding”.

B2: RGE-FITC (designed binder)
chain: B1 chain
modifications: fluorescein-5-maleimide on the C-terminal cysteine
B2: no binding (tested: 0.2 µg/ml) [4]; no binding [5].

B3: ADX_6093_A01 alkylated (non-binding control) (designed binder)
chain: B1 chain
modifications: C-terminal cysteine alkylated with iodoacetamide
For B3, the EC50 [6] was > 200 nM.

B4: GPC3_AdxDC DA variant-DAR1 (designed binder)
chain: GVSDVPRDLEVVAATPTSLLISWSDDYHAHRYYRITYGETGGNSPVQEFTVPGEHVTATISGLKPGVDYTITVYAVTYDAEKAATDWSISINYRTPC
modifications: tubulysin analog-linker conjugated to the C-terminal cysteine (DAR1)
notes: also called DA variant AdxDC DAR1; GPC3_AdxDC (DA) DAR1
B4 showed a Kd [7] of 23 nM, a koff [7] of 0.00095 s⁻¹ and a Kd [8] of 25 nM. For the same binder, the koff [8] was 0.0021 s⁻¹ and the “Cell-killing IC50 (Huh7)” value [9] was 0.2 nM.

B5: DA variant of ADX_6077_F02, unconjugated protein (designed binder)
chain: B4 chain
notes: also called DA variant, unconjugated
In the case of B5, the EC50 [10] is reported as 2.2 nM.

B6: ADX_6077_F02 DAR1 AdxDC (GPC3-tubulysin Adnectin drug conjugate) (designed binder)
chain: MGVSDVPRDLEVVAATPTSLLISWSDDYHAHRYYRITYGETGGNSPVQEFTVPGEHVTATISGLKPGVDYTITVYAVTYDGEKAATDWSISINYRTPCHHHHHH
modifications: tubulysin analog-linker (formula IV) conjugated through its maleimide to the C-terminal cysteine (DAR1)
notes: also called GPC3 AdxDC DAR1; ADX_6077_F02-961
With B6 the “AdxDC cell-killing IC50” value [2] was 0.2 nM, the Kd [11] was 11 nM and the koff [11] was 0.00077 s⁻¹. The Kd [12] was 12 nM and the koff [12] was 0.00098 s⁻¹.

B7: ADX_6077_F02 alkylated (designed binder)
chain: B6 chain
modifications: C-terminal cysteine (of PC) alkylated with iodoacetamide
notes: also called alkylated (capped) Adnectin; alkylated parent
With B7 the EC50 [6] was 5 nM, the “Fold affinity (KD) difference vs alkylated parent” value [13] was 1 fold and the Kd [13] was 3.8 nM. The koff [13] was 0.00049 s⁻¹, the kon [13] was 130000 M⁻¹ s⁻¹ and the “Fold affinity (KD) difference vs alkylated parent” value [14] was 1 fold. It also gave a Kd [14] of 5.6 nM, a koff [14] of 0.000534 s⁻¹ and a kon [14] of 95300 M⁻¹ s⁻¹. For the same binder, the Kd [15] was 3.69 nM, the koff [15] was 0.000453 s⁻¹ and the kon [15] was 123000 M⁻¹ s⁻¹. The Kd [16] was 5.88 nM, the koff [16] was 0.000524 s⁻¹ and the kon [16] was 89000 M⁻¹ s⁻¹.
